The target of this experiment is BF520.M6.I1 Env (HIV-1 (clade A, infant BF520)).

B1: BF520.1 mature mAb (IgG) (antibody, V domains shown)
VH: QVQLVQSGAEMKMPGASVKVSCKASGYTFTGNYIHWVRQAPGQGLEWMGWIAPHSGDTSYAQRFQGRVTMTGDTSLSTAYMELSRLRSDDTAVYYCARGPFPNYYGPGSYWGGLDFWGQGTLVSVSS
VL: EIVMTQSPATLSVSLGERATLSCRTSQNVAYNFAWYQQKPGQAPRLLIYEASSRATGTPARFSGSGFGTEFTLTISSMQSEDFAVYYCQQYNNWPSPFTFGPGTKVHIK
With B1, the potency (IC50) of neutralization of the autologous pseudovirus BF520.M6.I1 is 1.1 μg ml^−1.

Source of the values: paper PMC6522554.
